Assay results reported in patent publication US20260242735A1 (UNIVERSIT T BASEL, published 2026).

Experiments:
Assay in all cases: alanine scan, flow cytometry;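 note: HEK293-T cells transiently expressing single-residue alanine mutants of CD33 (alanine swapped to serine), antibody binding read by fluorescence in duplicate, background-subtracted, expressed relative to wild-type CD33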
human CD33 T222A = human CD33 T222A (human, UniProt P20138 18-364)
human CD33 I198A = target: T1, human CD33 I198A (human, UniProt P20138 18-364)
T1 construct: the leading token is not explained
T1 sequence (P20138 18-364 I198A limits assumed): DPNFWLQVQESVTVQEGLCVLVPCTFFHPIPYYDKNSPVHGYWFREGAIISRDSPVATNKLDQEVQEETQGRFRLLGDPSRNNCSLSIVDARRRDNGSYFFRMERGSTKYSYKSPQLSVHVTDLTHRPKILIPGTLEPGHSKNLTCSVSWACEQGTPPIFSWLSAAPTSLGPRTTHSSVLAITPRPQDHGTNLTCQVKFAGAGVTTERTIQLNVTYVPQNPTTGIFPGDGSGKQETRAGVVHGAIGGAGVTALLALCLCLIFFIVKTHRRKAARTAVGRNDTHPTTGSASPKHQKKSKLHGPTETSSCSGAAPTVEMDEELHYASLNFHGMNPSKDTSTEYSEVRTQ

human CD33 G241A = human CD33 G241A (human, UniProt P20138 18-364)
human CD33 N230A = human CD33 N230A (human, UniProt P20138 18-364)
Sequence of human CD33 N230A (P20138 18-364 N230A limits assumed): as the sequence (P20138 18-364 I198A limits assumed) above, with A181I, N213A counted along it

human CD33 N237A = human CD33 N237A (human, UniProt P20138 18-364)
Sequence of human CD33 N237A (P20138 18-364 N237A limits assumed): as the sequence (P20138 18-364 I198A limits assumed) above, with A181I, N220A counted along it

human CD33 G256A = human CD33 G256A (human, UniProt P20138 18-364)
human CD33 G264A = human CD33 G264A (human, UniProt P20138 18-364)
human CD33 P238A = human CD33 P238A (human, UniProt P20138 18-364)
Sequence of human CD33 P238A (P20138 18-364 P238A limits assumed): as the sequence (P20138 18-364 I198A limits assumed) above, with A181I, P221A counted along it

human CD33 G207A = human CD33 G207A (human, UniProt P20138 18-364)
human CD33 G247A = human CD33 G247A (human, UniProt P20138 18-364)
Sequence of human CD33 G247A (P20138 18-364 G247A limits assumed): as the sequence (P20138 18-364 I198A limits assumed) above, with A181I, G230A counted along it

human CD33 G263A = human CD33 G263A (human, UniProt P20138 18-364)
Sequence of human CD33 G263A (P20138 18-364 G263A limits assumed): as the sequence (P20138 18-364 I198A limits assumed) above, with A181I, G246A counted along it

human CD33 A269S = human CD33 A269S (human, UniProt P20138 18-364)
Sequence of human CD33 A269S (P20138 18-364 A269S limits assumed): as the sequence (P20138 18-364 I198A limits assumed) above, with A181I, A252S counted along it

human CD33 Q213A = human CD33 Q213A (human, UniProt P20138 18-364)
human CD33 T226A = human CD33 T226A (human, UniProt P20138 18-364)
human CD33 Q236A = human CD33 Q236A (human, UniProt P20138 18-364)
human CD33 T223A = human CD33 T223A (human, UniProt P20138 18-364)
Sequence of human CD33 T223A (P20138 18-364 T223A limits assumed): as the sequence (P20138 18-364 I198A limits assumed) above, with A181I, T206A counted along it

human CD33 R254A = human CD33 R254A (human, UniProt P20138 18-364)
human CD33 Y233A = human CD33 Y233A (human, UniProt P20138 18-364)
human CD33 Q251A = human CD33 Q251A (human, UniProt P20138 18-364)
human CD33 V267A = human CD33 V267A (human, UniProt P20138 18-364)
Sequence of human CD33 V267A (P20138 18-364 V267A limits assumed): as the sequence (P20138 18-364 I198A limits assumed) above, with A181I, V250A counted along it

human CD33 P235A = human CD33 P235A (human, UniProt P20138 18-364)
human CD33 V234A = human CD33 V234A (human, UniProt P20138 18-364)
human CD33 Q228A = human CD33 Q228A (human, UniProt P20138 18-364)
Sequence of human CD33 Q228A (P20138 18-364 Q228A limits assumed): as the sequence (P20138 18-364 I198A limits assumed) above, with A181I, Q211A counted along it

human CD33 L197A = human CD33 L197A (human, UniProt P20138 18-364)
human CD33 D246A = human CD33 D246A (human, UniProt P20138 18-364)
human CD33 R225A = human CD33 R225A (human, UniProt P20138 18-364)
human CD33 A219S = human CD33 A219S (human, UniProt P20138 18-364)
human CD33 T268A = human CD33 T268A (human, UniProt P20138 18-364)
human CD33 E252A = human CD33 E252A (human, UniProt P20138 18-364)
human CD33 I262A = human CD33 I262A (human, UniProt P20138 18-364)
human CD33 G220A = human CD33 G220A (human, UniProt P20138 18-364)
Sequence of human CD33 G220A (P20138 18-364 G220A limits assumed): as the sequence (P20138 18-364 I198A limits assumed) above, with A181I, G203A counted along it

human CD33 N209A = human CD33 N209A (human, UniProt P20138 18-364)
human CD33 G245A = human CD33 G245A (human, UniProt P20138 18-364)
human CD33 I199A = human CD33 I199A (human, UniProt P20138 18-364)
Sequence of human CD33 I199A (P20138 18-364 I199A limits assumed): as the sequence (P20138 18-364 I198A limits assumed) above, with A181I, I182A counted along it

human CD33 E224A = human CD33 E224A (human, UniProt P20138 18-364)
human CD33 V221A = human CD33 V221A (human, UniProt P20138 18-364)
human CD33 A261S = human CD33 A261S (human, UniProt P20138 18-364)
human CD33 T200A = human CD33 T200A (human, UniProt P20138 18-364)
Sequence of human CD33 T200A (P20138 18-364 T200A limits assumed): as the sequence (P20138 18-364 I198A limits assumed) above, with A181I, T183A counted along it

human CD33 T253A = human CD33 T253A (human, UniProt P20138 18-364)
human CD33 F243A = human CD33 F243A (human, UniProt P20138 18-364)
human CD33 T239A = human CD33 T239A (human, UniProt P20138 18-364)
Sequence of human CD33 T239A (P20138 18-364 T239A limits assumed): as the sequence (P20138 18-364 I198A limits assumed) above, with A181I, T222A counted along it

B1: Refmab #5 (antibody, V domains shown)
VH: QVQLVQSGAEVKKPGASVKVSCKASGYTFTNYDINWVRQAPGQGLEWIGWIYPGDGSTKYNEKFKAKATLTADTSTSTAYMELRSLRSDDTAVYYCASGYEDAMDYWGQGTTVTVSS
VL: DIQMTQSPSSLSASVGDRVTINCKASQDINSYLSWFQQKPGKAPKTLIYRANRLVDGVPSRFSGSGSGQDYTLTISSLQPEDFATYYCLQYDEFPLTFGGGTKVEIK
notes: Full-length format is human IgG1 Fc silent (PG-LALA); also made as Fab; The alanine scan used IgG or Fab
Human CD33 T222A
  Mean % WT Binding: 111 % WT binding
Human CD33 I198A
  Mean % WT Binding: 84.7 % WT binding
Human CD33 G241A
  Mean % WT Binding: 109 % WT binding
Human CD33 N230A
  Mean % WT Binding: 105 % WT binding
Human CD33 N237A
  Mean % WT Binding: 91.8 % WT binding
Human CD33 G256A
  Mean % WT Binding: 87.6 % WT binding
Human CD33 G264A
  Mean % WT Binding: 94.4 % WT binding
Human CD33 P238A
  Mean % WT Binding: 157 % WT binding
Human CD33 G207A
  Mean % WT Binding: 109 % WT binding
Human CD33 G247A
  Mean % WT Binding: 85.6 % WT binding
Human CD33 G263A
  Mean % WT Binding: 104 % WT binding
Human CD33 A269S
  Mean % WT Binding: 124 % WT binding
Human CD33 Q213A
  Mean % WT Binding: 128 % WT binding
Human CD33 T226A
  Mean % WT Binding: 97.9 % WT binding
Human CD33 Q236A
  Mean % WT Binding: 100 % WT binding
Human CD33 T223A
  Mean % WT Binding: 115 % WT binding
Human CD33 R254A
  Mean % WT Binding: 94.7 % WT binding
Human CD33 Y233A
  Mean % WT Binding: 89.5 % WT binding
Human CD33 Q251A
  Mean % WT Binding: 94.7 % WT binding
Human CD33 V267A
  Mean % WT Binding: 95.2 % WT binding
Human CD33 P235A
  Mean % WT Binding: 102 % WT binding
Human CD33 V234A
  Mean % WT Binding: 115 % WT binding
Human CD33 Q228A
  Mean % WT Binding: 129 % WT binding
Human CD33 L197A
  Mean % WT Binding: 102 % WT binding
Human CD33 D246A
  Mean % WT Binding: 115 % WT binding
Human CD33 R225A
  Mean % WT Binding: 124 % WT binding
Human CD33 A219S
  Mean % WT Binding: 93.7 % WT binding
Human CD33 T268A
  Mean % WT Binding: 84.7 % WT binding
Human CD33 E252A
  Mean % WT Binding: 114 % WT binding
Human CD33 I262A
  Mean % WT Binding: 97.5 % WT binding
Human CD33 G220A
  Mean % WT Binding: 93.5 % WT binding
Human CD33 N209A
  Mean % WT Binding: 88.1 % WT binding
Human CD33 G245A
  Mean % WT Binding: 110 % WT binding
Human CD33 I199A
  Mean % WT Binding: 132 % WT binding
Human CD33 E224A
  Mean % WT Binding: 97.1 % WT binding
Human CD33 V221A
  Mean % WT Binding: 116 % WT binding
Human CD33 A261S
  Mean % WT Binding: 79.8 % WT binding
Human CD33 T200A
  Mean % WT Binding: 98.3 % WT binding
Human CD33 T253A
  Mean % WT Binding: 94.6 % WT binding
Human CD33 F243A
  Mean % WT Binding: 103 % WT binding
Human CD33 T239A
  Mean % WT Binding: 107 % WT binding

B2: Refmab #6 (antibody, V domains shown)
VH: QVQLQQPGAEVVKPGASVKMSCKASGYTFTSYYIHWIKQTPGQGLEWVGVIYPGNDDISYNQKFQGKATLTADKSSTTAYMQLSSLTSEDSAVYYCAREVRLRYFDVWGQGTTVTVSS
VL: EIVLTQSPGSLAVSPGERVTMSCKSSQSVFFSSSQKNYLAWYQQIPGQSPRLLIYWASTRESGVPDRFTGSGSGTDFTLTISSVQPEDLAIYYCHQYLSSRTFGQGTKLEIK
notes: as for B1
Human CD33 T222A
  Mean % WT Binding: 92.2 % WT binding
Human CD33 I198A
  Mean % WT Binding: 89.3 % WT binding
Human CD33 G241A
  Mean % WT Binding: 101 % WT binding
Human CD33 N230A
  Mean % WT Binding: 83.8 % WT binding
Human CD33 N237A
  Mean % WT Binding: 101 % WT binding
Human CD33 G256A
  Mean % WT Binding: 108 % WT binding
Human CD33 G264A
  Mean % WT Binding: 103 % WT binding
Human CD33 P238A
  Mean % WT Binding: 114 % WT binding
Human CD33 G207A
  Mean % WT Binding: 98.6 % WT binding
Human CD33 G247A
  Mean % WT Binding: 105 % WT binding
Human CD33 G263A
  Mean % WT Binding: 94.3 % WT binding
Human CD33 A269S
  Mean % WT Binding: 93.9 % WT binding
Human CD33 Q213A
  Mean % WT Binding: 98 % WT binding
Human CD33 T226A
  Mean % WT Binding: 96.5 % WT binding
Human CD33 Q236A
  Mean % WT Binding: 103 % WT binding
Human CD33 T223A
  Mean % WT Binding: 110 % WT binding
Human CD33 R254A
  Mean % WT Binding: 95.7 % WT binding
Human CD33 Y233A
  Mean % WT Binding: 103 % WT binding
Human CD33 Q251A
  Mean % WT Binding: 126 % WT binding
Human CD33 V267A
  Mean % WT Binding: 101 % WT binding
Human CD33 P235A
  Mean % WT Binding: 84.3 % WT binding
Human CD33 V234A
  Mean % WT Binding: 109 % WT binding
Human CD33 Q228A
  Mean % WT Binding: 100 % WT binding
Human CD33 L197A
  Mean % WT Binding: 103 % WT binding
Human CD33 D246A
  Mean % WT Binding: 106 % WT binding
Human CD33 R225A
  Mean % WT Binding: 104 % WT binding
Human CD33 A219S
  Mean % WT Binding: 92 % WT binding
Human CD33 T268A
  Mean % WT Binding: 100 % WT binding
Human CD33 E252A
  Mean % WT Binding: 108 % WT binding
Human CD33 I262A
  Mean % WT Binding: 99.4 % WT binding
Human CD33 G220A
  Mean % WT Binding: 99.8 % WT binding
Human CD33 N209A
  Mean % WT Binding: 101 % WT binding
Human CD33 G245A
  Mean % WT Binding: 91.8 % WT binding
Human CD33 I199A
  Mean % WT Binding: 106 % WT binding
Human CD33 E224A
  Mean % WT Binding: 106 % WT binding
Human CD33 V221A
  Mean % WT Binding: 94.6 % WT binding
Human CD33 A261S
  Mean % WT Binding: 56.7 % WT binding
Human CD33 T200A
  Mean % WT Binding: 110 % WT binding
Human CD33 T253A
  Mean % WT Binding: 96.8 % WT binding
Human CD33 F243A
  Mean % WT Binding: 98.2 % WT binding
Human CD33 T239A
  Mean % WT Binding: 87.3 % WT binding
